Assay results published in publication PMC8913689.

Target: HA-metabotropic glutamate receptor 3, Q14832
Assay: AFM single-molecule force spectroscopy (AFM-SMFS); living WTT-CHO cells transfected with 1 µg of HA-GPCR vector, basal state, 37 °C; anti-HA antibody on the AFM tip pulls the HA-receptor out of the membrane; unfolding distances fitted by a Gaussian mixture (BIC) and each population assigned to an oligomeric state by the receptor's theoretical …
Conditions: remark: other sources report otherwise

stoichiometry N: 2
B1: HA-metabotropic glutamate receptor 3, Q14832 23-879 (receptor)
chain: LGDHNFLRREIKIEGDLVLGGLFPINEKGTGTEECGRINEDRGIQRLEAMLFAIDEINKDDYLLPGVKLGVHILDTCSRDTYALEQSLEFVRASLTKVDEAEYMCPDGSYAIQENIPLLIAGVIGGSYSSVSIQVANLLRLFQIPQISYASTSAKLSDKSRYDYFARTVPPDFYQAKAMAEILRFFNWTYVSTVASEGDYGETGIEAFEQEARLRNICIATAEKVGRSNIRKSYDSVIRELLQKPNARVVVLFMRSDDSRELIAAASRANASFTWVASDGWGAQESIIKGSEHVAYGAITLELASQPVRQFDRYFQSLNPYNNHRNPWFRDFWEQKFQCSLQNKRNHRRVCDKHLAIDSSNYEQESKIMFVVNAVYAMAHALHKMQRTLCPNTTKLCDAMKILDGKKLYKDYLLKINFTAPFNPNKDADSIVKFDTFGDGMGRYNVFNFQNVGGKYSYLKVGHWAETLSLDVNSIHWSRNSVPTSQCSDPCAPNEMKNMQPGDVCCWICIPCEPYEYLADEFTCMDCGSGQWPTADLTGCYDLPEDYIRWEDAWAIGPVTIACLGFMCTCMVVTVFIKHNNTPLVKASGRELCYILLFGVGLSYCMTFFFIAKPSPVICALRRLGLGSSFAICYSALLTKTNCIARIFDGVKNGAQRPKFISPSSQVFICLGLILVQIVMVSVWLILEAPGTRRYTLAEKRETVILKCNVKDSSMLISLTYDVILVILCTVYAFKTRKCPENFNEAKFIGFTMYTTCIIWLAFLPIFYVTSSDYRVQTTTMCISVSLSGFVVLGCLFAPKVHIILFQPQKNVVTHRLHLNRFSVSGTGTTYSQSSASTYVPTVCNGREVLDSTTSSL
